# Test results as given in US20240016892A1.
# Tests used:
# human 4-1BB-His (human) [1] = biological target: human 4-1BB-His (human) (UniProt Q07011); test: MSD 'Human 41BB-Binding Assay': coat h41BB-His (R&D), detect anti-41BBL (R&D), anti-Goat Sulfo; negative control, fit value for a curve that stays near the baseline
# [2] = biological target: recombinant human PVR (human) (UniProt P15151); test: BLI (Octet-Red96), tagged rhPVR immobilised on biosensor
# [3] = biological target: recombinant human LTβR (human) (UniProt P36941); test: BLI (Octet-Red96), tagged rhLTβR immobilised on biosensor
# [4] = biological target: recombinant human HVEM (human) (UniProt Q92956); test: BLI (Octet-Red96), tagged rhHVEM immobilised on biosensor
# mouse CD47-Fc (mouse) = mouse CD47-Fc (mouse) (UniProt Q61735); test: MSD dual-binding sandwich: coat mCD47-Fc (Acro); detect m41BB-His (Acro); anti-His Biotin + Streptavidin Sulfo; labelled Negative Control
# mouse 4-1BB-His (mouse) = mouse 4-1BB-His (mouse) (UniProt P20334); test: MSD: coat m41BB-His (Acro); detection anti-mouse Sulfo (MSD); labelled Negative Control, flat curve
# mouse CD47-His (mouse) = mouse CD47-His (mouse) (UniProt Q61735); test: MSD: coat mCD47-His (Acro); detection anti-mouse Sulfo (MSD); labelled Positive Control
# [5] = biological target: recombinant human LTβR-Fc (human) (UniProt P36941); test: MSD sandwich: capture LTβR-Fc; detection PVR-Biotin
# [6] = biological target: recombinant human HVEM-Fc (human) (UniProt Q92956); test: MSD sandwich: capture HVEM-Fc; detection PVR-Biotin
# human 4-1BB-His (human) [7] = biological target: human 4-1BB-His (human) (UniProt Q07011); test: MSD 'Human 41BB-Binding Assay': coat h41BB-His (R&D), detect anti-41BBL (R&D), anti-Goat Sulfo; positive control
# recombinant human HVEM (human), sequence (Q92956 39-202 limits assumed): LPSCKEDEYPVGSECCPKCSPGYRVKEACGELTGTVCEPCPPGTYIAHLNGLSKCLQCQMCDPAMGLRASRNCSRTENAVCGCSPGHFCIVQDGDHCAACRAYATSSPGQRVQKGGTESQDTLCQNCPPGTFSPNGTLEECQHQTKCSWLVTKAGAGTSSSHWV
# recombinant human LTβR (human), sequence (P36941 31-227 limits assumed): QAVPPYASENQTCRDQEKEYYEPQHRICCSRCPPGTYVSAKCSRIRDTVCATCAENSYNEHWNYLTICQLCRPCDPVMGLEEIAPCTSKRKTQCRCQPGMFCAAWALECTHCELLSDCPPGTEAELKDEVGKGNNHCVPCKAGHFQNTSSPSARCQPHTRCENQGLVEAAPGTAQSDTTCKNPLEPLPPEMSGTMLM
# recombinant human PVR (human), sequence (P15151 21-343 limits assumed): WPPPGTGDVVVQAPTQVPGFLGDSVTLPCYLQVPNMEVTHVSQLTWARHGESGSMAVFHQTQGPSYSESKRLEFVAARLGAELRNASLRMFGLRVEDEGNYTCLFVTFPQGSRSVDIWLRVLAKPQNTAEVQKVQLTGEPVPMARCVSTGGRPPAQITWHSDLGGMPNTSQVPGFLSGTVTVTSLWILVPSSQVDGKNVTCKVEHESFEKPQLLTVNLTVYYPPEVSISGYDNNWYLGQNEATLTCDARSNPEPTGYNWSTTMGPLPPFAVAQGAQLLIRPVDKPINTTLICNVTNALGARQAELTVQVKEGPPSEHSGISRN
# human 4-1BB-His (human), sequence (Q07011 24-186 limits assumed): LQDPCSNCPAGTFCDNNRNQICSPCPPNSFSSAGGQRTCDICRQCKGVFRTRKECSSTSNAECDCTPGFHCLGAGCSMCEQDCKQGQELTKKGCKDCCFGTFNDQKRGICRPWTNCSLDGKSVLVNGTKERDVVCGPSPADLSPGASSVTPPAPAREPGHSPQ
# recombinant human HVEM-Fc (human), sequence (Q92956 39-202 limits assumed): as the sequence (Q92956 39-202 limits assumed) above
# recombinant human LTβR-Fc (human), sequence (P36941 31-227 limits assumed): as the sequence (P36941 31-227 limits assumed) above
# mouse 4-1BB-His (mouse), sequence (P20334 24-187 limits assumed): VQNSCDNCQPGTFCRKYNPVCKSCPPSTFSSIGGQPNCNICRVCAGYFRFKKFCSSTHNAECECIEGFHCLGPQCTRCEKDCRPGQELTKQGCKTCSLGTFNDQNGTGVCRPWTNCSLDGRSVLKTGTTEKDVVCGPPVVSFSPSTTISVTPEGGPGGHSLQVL
# mouse CD47-His (mouse), sequence (Q61735 19-140 limits assumed): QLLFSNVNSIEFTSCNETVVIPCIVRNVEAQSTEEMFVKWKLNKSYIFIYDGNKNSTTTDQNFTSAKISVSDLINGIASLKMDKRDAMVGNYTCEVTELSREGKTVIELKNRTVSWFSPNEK
# mouse CD47-Fc (mouse), sequence (Q61735 19-140 limits assumed): as above
substance,measurement,setting,value
hSIRPα-Fc-CD40L chimeric protein (Fc fusion),EC50,human 4-1BB-His (human) [1],143 nM
TIGIT-Fc single-sided fusion protein control (Fc fusion),Kd,[2],5.24 nM
same,koff,[2],0.00154 s⁻¹
same,kon,[2],296000 M⁻¹ s⁻¹
Fc-LIGHT single-sided fusion protein control (Fc fusion),Kd,[3],28.4 nM
same,koff,[3],0.00754 s⁻¹
same,kon,[3],266000 M⁻¹ s⁻¹
same,Kd,[4],2.12 nM
same,koff,[4],0.000876 s⁻¹
same,kon,[4],410000 M⁻¹ s⁻¹
PD-1-Fc-4-1BBL chimeric protein (as used in Example 15) (Fc fusion),EC50,mouse CD47-Fc (mouse),45000 nM
mSIRPα-Fc-CD40L chimeric protein (Fc fusion),EC50,mouse 4-1BB-His (mouse),5350 nM
same,EC50,mouse CD47-His (mouse),0.369 nM
TIGIT-Fc(IgG1)-LIGHT chimeric protein (Fc fusion),EC50 (read off the curve),[5],3 nM
same,EC50 (read off the curve),[6],5 nM
PD-1-Fc-4-1BBL chimeric protein (as used in Example 14) (Fc fusion),EC50,human 4-1BB-His (human) [7],0.63 nM
